Test [1] deals with cynomolgus CD47 (cynomolgus). In words: SPR; orientation and conditions not given (Table S2, supplementary methods).
For test [2], the target named is cynomolgus 4-1BB (cynomolgus). The test is described as above.
The target of test [3] is human CD47 (surface plasmon resonance) (human) (UniProt Q08722). The description is as above.
Test [4] addresses human 4-1BB (surface plasmon resonance) (human) (UniProt Q07011). The description is as above.
Test [5] addresses human CD47 expressed on CHO-K1 cells (human) (UniProt Q08722). In words: cell doublet formation by flow cytometry; mixed CFSE stained CHO.CD47 and CytoLightRed stained HT1080.4-1BB cells with 5 μg/ml DSP107; doublets as double-positive events; blocking with CD47 mAb or soluble 4-1BBL. A general note: In flow cytometry, cells or beads pass a laser one at a time.
Test [6] deals with 4-1BB on HT1080.4-1BB cells (UniProt Q07011). The test is described as above.
In test [7] the target is human CD47:Fc protein (human) (UniProt Q08722). In words: ELISA; dual-binding ELISA: human CD47:Fc as capture, DSP107 titrated, human biotinylated-4-1BB as detector; three separately produced batches of DSP107. A general note: ELISA stands for enzyme-linked immunosorbent assay.
The target of test [8] is Dual Signaling Protein 107 (DSP107) (human) (UniProt P78324). In words: SEC-MALS; purified DSP107 in solution. A general note: Size exclusion chromatography separates by hydrodynamic size, large species first.

Sequence of human 4-1BB (surface plasmon resonance) (human) (Q07011 24-255): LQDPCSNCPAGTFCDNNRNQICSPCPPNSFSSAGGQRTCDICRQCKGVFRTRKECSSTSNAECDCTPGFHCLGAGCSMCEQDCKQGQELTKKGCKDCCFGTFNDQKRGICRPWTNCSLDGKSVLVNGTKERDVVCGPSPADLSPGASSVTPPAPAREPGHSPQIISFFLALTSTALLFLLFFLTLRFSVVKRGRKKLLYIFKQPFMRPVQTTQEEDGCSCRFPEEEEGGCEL
Sequence of 4-1BB on HT1080.4-1BB cells (Q07011 24-255): as above
Sequence of human CD47 expressed on CHO-K1 cells (human) (Q08722 19-323): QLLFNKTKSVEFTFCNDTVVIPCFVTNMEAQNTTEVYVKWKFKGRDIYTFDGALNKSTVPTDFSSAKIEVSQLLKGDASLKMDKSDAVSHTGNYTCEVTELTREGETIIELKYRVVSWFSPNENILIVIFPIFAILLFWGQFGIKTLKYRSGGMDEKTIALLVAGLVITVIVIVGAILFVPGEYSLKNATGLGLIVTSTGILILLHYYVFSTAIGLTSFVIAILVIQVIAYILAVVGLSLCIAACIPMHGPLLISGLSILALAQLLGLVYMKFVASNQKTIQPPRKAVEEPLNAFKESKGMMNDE
Sequence of human CD47 (surface plasmon resonance) (human) (Q08722 19-323): as above

Turning to “Dual Signaling Protein 107 (DSP107) (from UniProt P78324 31-373; P41273 50-254)”, the dissociation constant (Kd) (as a rule, the free concentration of one partner at which half of the binding sites on the other are occupied at equilibrium, for simple one-to-one binding) stood at 1.75 nM in test [1], 0.34 nM in test [2], 1.17 nM in test [3] and 0.7 nM in test [4]. The percent doublets of CHO-K1.CD47 and HT1080.4-1BB cells in test [5] and in test [6] was 25% in each case. In addition, the half-maximal effective concentration (EC50) (usually the concentration needed to bring the measured effect to its halfway point) in test [7] came out at 0.94 nM. Moreover, the stoichiometry N (usually the number of molecules, sites or subunits per partner or assembly) in test [8] came to 3.

These data come from article PMC8919572.
